The values that follow come from article PMC8295636.

The assay concerns the target p53. In words: two-hybrid.

Substance SV40T (natural protein) displayed a fold increase of reporter expression over negative controls above 130 times.
